Assay results: paper PMC9804626 (Molecular Microbiology, 2022)

T1: RodZ‐L‐FLAG^3 (Streptococcus pneumoniae D39)
T1 sequence (Q8DMX7 1-276, looked up): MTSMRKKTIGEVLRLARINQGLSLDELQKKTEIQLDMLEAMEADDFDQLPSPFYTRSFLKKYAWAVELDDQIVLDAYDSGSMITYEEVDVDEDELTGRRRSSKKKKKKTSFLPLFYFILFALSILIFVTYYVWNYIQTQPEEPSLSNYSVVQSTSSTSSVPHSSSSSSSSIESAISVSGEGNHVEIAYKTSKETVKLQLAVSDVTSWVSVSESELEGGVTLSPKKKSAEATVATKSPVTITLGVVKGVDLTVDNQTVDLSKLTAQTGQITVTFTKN

T2: RodZ‐FLAG (Streptococcus pneumoniae D39)
T2 sequence (Q8DMX7 1-276, looked up): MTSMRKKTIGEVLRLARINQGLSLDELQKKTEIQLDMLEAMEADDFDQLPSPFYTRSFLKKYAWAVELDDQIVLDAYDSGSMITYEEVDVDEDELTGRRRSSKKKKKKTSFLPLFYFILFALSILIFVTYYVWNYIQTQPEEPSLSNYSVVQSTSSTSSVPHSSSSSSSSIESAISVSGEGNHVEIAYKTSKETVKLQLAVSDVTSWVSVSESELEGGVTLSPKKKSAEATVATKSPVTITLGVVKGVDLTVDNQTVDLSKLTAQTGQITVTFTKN

T3: MreC‐L‐F3 (Streptococcus pneumoniae D39, UniProt Q8DMY2 1-272)
T3 sequence (looked up): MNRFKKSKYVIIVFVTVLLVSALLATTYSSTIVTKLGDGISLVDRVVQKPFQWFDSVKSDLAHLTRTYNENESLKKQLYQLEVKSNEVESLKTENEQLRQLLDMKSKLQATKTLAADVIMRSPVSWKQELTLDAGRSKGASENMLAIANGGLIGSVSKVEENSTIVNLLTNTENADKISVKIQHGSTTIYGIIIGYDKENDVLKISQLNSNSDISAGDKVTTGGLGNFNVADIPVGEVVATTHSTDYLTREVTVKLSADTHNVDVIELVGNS


Experiments:
Assay in all cases: co-IP
[1] = target: T1, RodZ‐L‐FLAG^3 (Streptococcus pneumoniae D39)
[2] = target: MpgA‐F (Streptococcus pneumoniae D39)
[3] = target: PBP1a‐F (Streptococcus pneumoniae D39)
[4] = target: MreC‐L‐F3 (Streptococcus pneumoniae D39) (UniProt Q8DMY2)
[5] = target: T2, RodZ‐FLAG (Streptococcus pneumoniae D39)
[6] = target: KhpB‐L‐F3 (Streptococcus pneumoniae D39) (UniProt Q8CY87)
MreC‐L‐F3 = target: T3, MreC‐L‐F3

Chain of FtsA (A0A0H2ZPT5 whole entry): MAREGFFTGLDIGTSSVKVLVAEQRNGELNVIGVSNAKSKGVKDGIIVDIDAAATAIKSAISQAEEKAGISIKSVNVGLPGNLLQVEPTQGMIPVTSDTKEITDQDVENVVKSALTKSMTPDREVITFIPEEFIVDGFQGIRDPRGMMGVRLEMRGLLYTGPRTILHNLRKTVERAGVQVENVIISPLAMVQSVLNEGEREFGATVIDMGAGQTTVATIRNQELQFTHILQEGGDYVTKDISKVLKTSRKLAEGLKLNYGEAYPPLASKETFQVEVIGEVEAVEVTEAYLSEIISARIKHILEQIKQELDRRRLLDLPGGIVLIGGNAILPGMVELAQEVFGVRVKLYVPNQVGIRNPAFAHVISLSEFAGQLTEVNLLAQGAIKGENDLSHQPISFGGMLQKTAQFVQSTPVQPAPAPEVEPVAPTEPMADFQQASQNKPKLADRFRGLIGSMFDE

| Molecule | ratio of prey protein band/background [1] | ratio of prey protein band/background [2] | ratio of prey protein band/background [3] | ratio of prey protein band/background [4] | ratio of prey protein band/background [5] | ratio of prey protein band/background [6] | ratio of prey protein band/background (MreC‐L‐F3) |
| --- | --- | --- | --- | --- | --- | --- | --- |
| FtsW‐L‐GFP (from UniProt A0ACD7PRK7 1-409) (natural protein) | 4.5 | – | – | – | – | – | – |
| MpgA‐HA (natural protein) | 8.6 | – | – | – | – | – | – |
| FtsA (from UniProt A0A0H2ZPT5 1-457) (natural protein) | – | 4.5 | – | – | – | – | – |
| StkP (natural protein) | 23 | 34 | 28 | 14 | – | – | – |
| aPBP1a (natural protein) | 61 | 22 | – | 41 | 11 | – | – |
| bPBP2x (natural protein) | 8.7 | 12 | 15 | 10 | 4.8 | – | – |
| bPBP2b (natural protein) | 63 | 13 | 13 | 47 | 26 | – | – |
| RodZ‐HA^3 (natural protein) | – | – | 8.6 | – | – | 1.4 | – |
| GpsB (natural protein) | 51 | 38 | 16 | 26 | 24 | – | – |
| aPBP2a (natural protein, UniProt A0A0H2ZMF9 1-731, looked up) MKLDKLFEKFLSLFKKETSELEDSDSTILRRSRSDRKKLAQVGPIRKFWRRYHLTKIILILGLSAGLLVGIYLFAVAKSTNVNDLQNALKTRTLIFDREEKEAGALSGQKGTYVELTDISKNLQNAVIATEDRSFYKNDGINYGRFFLAIVTAGRSGGGSTITQQLAKNAYLSQDQTVERKAKEFFLALELSKKYSKEQILTMYLNNAYFGNGVWGVEDASKKYFGVSASEVSLDQAATLAGMLKGPELYNPLNSVEDSTNRRDTVLQNMVAAGYIDKNQETEAAEVDMTSQLHDKYEGKISDYRYPSYFDAVVNEAVSKYNLTEEEIVNNGYRIYTELDQNYQANMQIVYENTSLFPRAEDGTFAQSGSVALEPKTGGVRGVVGQVADNDKTGFRNFNYATQSKRSPGSTIKPLVVYTPAVEAGWALNKQLDNHTMQYDSYKVDNYAGIKTSREVPMYQSLAESLNLPAVATVNDLGVDKAFEAGEKFGLNMEKVDRVLGVALGSGVETNPLQMAQAYAAFANEGLMPEAHFISRIENASGQVIASHKNSQKRVIDKSVADKMTSMMLGTFTNGTGISSSPADYVMAGKTGTTEAVFNPEYTSDQWVIGYTPDVVISHWLGFPTTDENHYLAGSTSNGAAHVFRNIANTILPYTPGSTFTVENAYKQNGIAPANTKRQVQTNDNSQTDDNLSDIRGRAQSLVDEASRAISDAKIKEKAQTIWDSIVNLFR | – | – | – | – | – | – | 20 |
| MreC (natural protein) MNRFKKSKYVIIVFVTVLLVSALLATTYSSTIVTKLGDGISLVDRVVQKPFQWFDSVKSDLAHLTRTYNENESLKKQLYQLEVKSNEVESLKTENEQLRQLLDMKSKLQATKTLAADVIMRSPVSWKQELTLDAGRSKGASENMLAIANGGLIGSVSKVEENSTIVNLLTNTENADKISVKIQHGSTTIYGIIIGYDKENDVLKISQLNSNSDISAGDKVTTGGLGNFNVADIPVGEVVATTHSTDYLTREVTVKLSADTHNVDVIELVGNS | 100 | 22 | 19 | – | 24 | – | – |
| DivIVA (natural protein, UniProt Q8CWP9 1-262, looked up) MPITSLEIKDKTFGTRFRGFDPEEVDEFLDIVVRDYEDLVRANHDKNLRIKSLEERLSYFDEIKDSLSQSVLIAQDTAERVKQAAHERSNNIIHQAEQDAQRLLEEAKYKANEILRQATDNAKKVAVETEELKNKSRVFHQRLKSTIESQLAIVESSDWEDILRPTATYLQTSDEAFKEVVSEVLGEPIPAPIEEEPIDMTRQFSQAEMEELQARIEVADKELSEFEAQIKQEVETPTPVVSPQVEEEPLLIQLAQCMKNQK | 18 | 53 | 6.8 | – | 7.9 | – | 4.3 |
